In patent publication US20200079868A1 (UNIVERSITY OF SOUTHERN CALIFORNIA, published 2020):

B1: scFv A192 (anti-CD20 scFv-G(VPGAG)192Y fusion) (scFv)
scFv: QVQLQQPGAELVKPGASVKMSCKASGYTFTSYNMHWVKQTPGRGLEWIGAIYPGNGDTSYNQKFKGKATLTADKSSSTAYMQLSSLTSEDSAVYYCARSTYYGGDWYFNVWGAGTTVTVSAGGGGSGGGGSGGGGSQIVLSQSPAILSASPGEKVTMTCRASSSVSYIHWFQQKPGSSPKPWIYATSNLASGVPVRFSGSGSGTSYSLTISRVEAEDAATYYCQQWTSNPPTFGGGTKLEIKRTGVPGAGVPGAGVPGAGVPGAGVPGAGVPGAGVPGAGVPGAGVPGAGVPGAGVPGAGVPGAGVPGAGVPGAGVPGAGVPGAGVPGAGVPGAGVPGAGVPGAGVPGAGVPGAGVPGAGVPGAGVPGAGVPGAGVPGAGVPGAGVPGAGVPGAGVPGAGVPGAGVPGAGVPGAGVPGAGVPGAGVPGAGVPGAGVPGAGVPGAGVPGAGVPGAGVPGAGVPGAGVPGAGVPGAGVPGAGVPGAGVPGAGVPGAGVPGAGVPGAGVPGAGVPGAGVPGAGVPGAGVPGAGVPGAGVPGAGVPGAGVPGAGVPGAGVPGAGVPGAGVPGAGVPGAGVPGAGVPGAGVPGAGVPGAGVPGAGVPGAGVPGAGVPGAGVPGAGVPGAGVPGAGVPGAGVPGAGVPGAGVPGAGVPGAGVPGAGVPGAGVPGAGVPGAGVPGAGVPGAGVPGAGVPGAGVPGAGVPGAGVPGAGVPGAGVPGAGVPGAGVPGAGVPGAGVPGAGVPGAGVPGAGVPGAGVPGAGVPGAGVPGAGVPGAGVPGAGVPGAGVPGAGVPGAGVPGAGVPGAGVPGAGVPGAGVPGAGVPGAGVPGAGVPGAGVPGAGVPGAGVPGAGVPGAGVPGAGVPGAGVPGAGVPGAGVPGAGVPGAGVPGAGVPGAGVPGAGVPGAGVPGAGVPGAGVPGAGVPGAGVPGAGVPGAGVPGAGVPGAGVPGAGVPGAGVPGAGVPGAGVPGAGVPGAGVPGAGVPGAGVPGAGVPGAGVPGAGVPGAGVPGAGVPGAGVPGAGVPGAGVPGAGVPGAGVPGAGVPGAGVPGAGVPGAGVPGAGVPGAGVPGAGVPGAGVPGAGVPGAGVPGAGVPGAGVPGAGVPGAGVPGAGVPGAGVPGAGVPGAGVPGAGVPGAGVPGAGVPGAGVPGAGVPGAGVPGAGVPGAGVPGAGVPGAGVPGAGVPGAGVPGAGVPGAGVPGAGVPGAGY
modifications: rhodamine (RHD) labeled in the confocal binding assays; site of the label not stated
B2: Rituximab (antibody, V domains shown)
VH: QVQLQQPGAELVKPGASVKMSCKASGYTFTSYNMHWVKQTPGRGLEWIGAIYPGNGDTSYNQKFKGKATLTADKSSSTAYMQLSSLTSEDSAVYYCARSTYYGGDWYFNVWGAGTTVTVSA
VL: QIVLSQSPAILSASPGEKVTMTCRASSSVSYIHWFQQKPGSSPKPWIYATSNLASGVPVRFSGSGSGTSYSLTISRVEAEDAATYYCQQWTSNPPTFGGGTKLEIK

Biological target: T1, CD20 (B-lymphocyte antigen CD20) on CD20+ human lymphoma cells (Raji, SU-DHL-7) (human, UniProt P11836 1-297)
T1 sequence (looked up): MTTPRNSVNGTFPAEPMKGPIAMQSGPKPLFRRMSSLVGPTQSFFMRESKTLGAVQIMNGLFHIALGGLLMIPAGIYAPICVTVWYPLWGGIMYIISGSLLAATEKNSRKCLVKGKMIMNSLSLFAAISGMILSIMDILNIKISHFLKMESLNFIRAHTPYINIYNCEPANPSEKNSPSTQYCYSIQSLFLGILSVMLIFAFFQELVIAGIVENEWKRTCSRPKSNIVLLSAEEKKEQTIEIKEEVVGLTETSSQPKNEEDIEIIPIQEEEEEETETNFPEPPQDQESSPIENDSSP
Test: cell-based or functional assay

Binder | IC50, cell viability (MTS/PMS), Raji cells [µM] | IC50, cell viability (MTS/PMS), SU-DHL-7 cells [µM] | IC50, cell viability, SU-DHL-7 cells (figure legend; differs from the text) [µM]
B1 | 32 | 41 | 4
B2 |  | 4 | 
